Assay results as given in the supplement of paper PMC10065799, “High-throughput profiling of sequence recognition by tyrosine kinases and SH2 domains using bacterial peptide display” (eLife, 2023).

Assays:
c-Src SH2 = experiment: SH2 binding enrichment of the phosphorylated peptide, bacterial display (enrichment ratio); higher = better substrate or ligand; peptides without Tyr show the background
Grb2 SH2 = Grb2 SH2 (UniProt P62993); experiment: as above
SHP2-C SH2 = experiment: as above
c-Src = experiment: phosphorylation enrichment, bacterial display (enrichment ratio); higher = better substrate or ligand; peptides without Tyr show the background
Fes = Fes (UniProt P07332); experiment: as above
Sequence of Fes (P07332 whole entry, looked up): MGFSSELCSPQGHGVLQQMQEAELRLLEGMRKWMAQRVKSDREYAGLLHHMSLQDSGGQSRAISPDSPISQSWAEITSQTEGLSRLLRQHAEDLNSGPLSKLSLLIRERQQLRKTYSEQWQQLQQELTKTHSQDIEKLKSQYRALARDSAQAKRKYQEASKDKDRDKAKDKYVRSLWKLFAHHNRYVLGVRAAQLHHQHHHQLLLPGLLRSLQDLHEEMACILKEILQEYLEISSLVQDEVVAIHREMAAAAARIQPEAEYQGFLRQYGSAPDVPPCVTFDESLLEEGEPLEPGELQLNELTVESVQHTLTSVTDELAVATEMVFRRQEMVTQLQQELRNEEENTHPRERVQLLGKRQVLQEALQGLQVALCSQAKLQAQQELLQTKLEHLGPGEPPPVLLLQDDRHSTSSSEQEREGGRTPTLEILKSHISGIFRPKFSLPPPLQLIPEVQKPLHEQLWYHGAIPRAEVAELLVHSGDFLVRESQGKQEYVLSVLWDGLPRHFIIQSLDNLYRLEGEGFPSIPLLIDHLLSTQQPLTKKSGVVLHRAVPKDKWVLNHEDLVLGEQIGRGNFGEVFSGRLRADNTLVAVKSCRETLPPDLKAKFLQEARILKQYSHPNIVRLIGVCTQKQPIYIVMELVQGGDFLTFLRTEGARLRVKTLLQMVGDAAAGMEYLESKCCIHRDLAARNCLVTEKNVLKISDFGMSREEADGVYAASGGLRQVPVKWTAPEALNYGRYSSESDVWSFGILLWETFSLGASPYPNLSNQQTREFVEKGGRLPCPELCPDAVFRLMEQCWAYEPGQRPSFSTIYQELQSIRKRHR

FGFR3 = FGFR3 (UniProt P22607); experiment: as above
Fyn = Fyn (UniProt P06241); experiment: as above
EPHB1 = EPHB1 (UniProt P54762); experiment: as above
Hck = Hck (UniProt P08631); experiment: as above
MERTK = MERTK (UniProt Q12866); experiment: as above
Sequence of MERTK (Q12866 whole entry, looked up): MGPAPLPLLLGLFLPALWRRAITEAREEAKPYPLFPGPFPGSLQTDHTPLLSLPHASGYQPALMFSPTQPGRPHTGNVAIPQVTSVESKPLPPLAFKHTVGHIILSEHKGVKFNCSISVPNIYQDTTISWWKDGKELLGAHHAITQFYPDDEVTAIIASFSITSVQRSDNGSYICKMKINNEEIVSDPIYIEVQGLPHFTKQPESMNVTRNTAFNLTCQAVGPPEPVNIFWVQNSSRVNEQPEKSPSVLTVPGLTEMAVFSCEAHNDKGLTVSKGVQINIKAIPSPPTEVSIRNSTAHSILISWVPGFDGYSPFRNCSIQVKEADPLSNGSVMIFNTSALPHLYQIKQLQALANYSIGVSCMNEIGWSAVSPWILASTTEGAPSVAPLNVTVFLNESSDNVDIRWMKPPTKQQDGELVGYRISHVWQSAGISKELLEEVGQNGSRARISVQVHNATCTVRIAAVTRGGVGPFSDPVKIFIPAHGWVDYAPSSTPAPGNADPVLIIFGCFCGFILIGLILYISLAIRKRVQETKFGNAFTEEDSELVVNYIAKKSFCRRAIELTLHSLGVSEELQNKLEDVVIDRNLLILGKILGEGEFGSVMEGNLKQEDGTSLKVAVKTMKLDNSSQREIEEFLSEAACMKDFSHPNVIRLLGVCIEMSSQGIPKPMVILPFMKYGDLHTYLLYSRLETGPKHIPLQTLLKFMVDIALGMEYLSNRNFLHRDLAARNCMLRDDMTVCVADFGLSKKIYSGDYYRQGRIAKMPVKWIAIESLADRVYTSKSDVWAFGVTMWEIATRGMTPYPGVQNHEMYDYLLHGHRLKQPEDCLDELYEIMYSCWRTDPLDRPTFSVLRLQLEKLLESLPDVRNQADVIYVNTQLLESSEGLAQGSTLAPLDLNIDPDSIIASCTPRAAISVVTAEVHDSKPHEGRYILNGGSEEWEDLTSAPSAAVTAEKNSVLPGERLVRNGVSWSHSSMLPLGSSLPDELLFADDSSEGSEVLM

EPHB2 = EPHB2 (UniProt P29323); experiment: as above
Sequence of EPHB2 (P29323 whole entry, looked up): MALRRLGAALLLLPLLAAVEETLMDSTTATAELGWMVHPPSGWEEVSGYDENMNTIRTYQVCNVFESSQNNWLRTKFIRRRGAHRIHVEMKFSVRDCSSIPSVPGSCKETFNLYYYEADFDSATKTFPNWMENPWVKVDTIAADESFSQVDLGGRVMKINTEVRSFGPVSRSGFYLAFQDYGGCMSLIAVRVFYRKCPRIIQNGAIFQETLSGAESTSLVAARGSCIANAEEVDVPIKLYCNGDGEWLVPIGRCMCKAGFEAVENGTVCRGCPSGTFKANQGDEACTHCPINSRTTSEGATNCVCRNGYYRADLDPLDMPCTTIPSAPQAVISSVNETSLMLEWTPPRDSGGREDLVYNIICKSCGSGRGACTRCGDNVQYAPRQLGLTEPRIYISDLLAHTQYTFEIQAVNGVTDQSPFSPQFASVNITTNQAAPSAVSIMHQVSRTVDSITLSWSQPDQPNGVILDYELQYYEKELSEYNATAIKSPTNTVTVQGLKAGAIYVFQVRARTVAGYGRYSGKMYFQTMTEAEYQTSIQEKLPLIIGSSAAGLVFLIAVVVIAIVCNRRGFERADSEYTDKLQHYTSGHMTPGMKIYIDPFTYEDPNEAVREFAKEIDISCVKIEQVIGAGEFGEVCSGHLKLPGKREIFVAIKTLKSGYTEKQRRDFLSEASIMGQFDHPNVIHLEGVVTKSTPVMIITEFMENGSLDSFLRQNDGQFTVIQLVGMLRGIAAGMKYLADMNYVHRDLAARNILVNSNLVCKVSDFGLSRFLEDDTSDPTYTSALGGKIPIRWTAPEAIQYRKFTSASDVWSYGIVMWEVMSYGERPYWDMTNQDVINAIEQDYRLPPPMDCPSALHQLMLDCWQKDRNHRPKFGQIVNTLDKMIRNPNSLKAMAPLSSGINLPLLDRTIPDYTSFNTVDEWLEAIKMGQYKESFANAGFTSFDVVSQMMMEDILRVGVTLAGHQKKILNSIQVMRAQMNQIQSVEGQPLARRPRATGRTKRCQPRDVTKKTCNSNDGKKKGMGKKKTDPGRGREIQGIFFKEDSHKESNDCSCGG

Jak2 = Jak2 (UniProt O60674); experiment: as above
Sequence of Jak2 (O60674 whole entry, looked up): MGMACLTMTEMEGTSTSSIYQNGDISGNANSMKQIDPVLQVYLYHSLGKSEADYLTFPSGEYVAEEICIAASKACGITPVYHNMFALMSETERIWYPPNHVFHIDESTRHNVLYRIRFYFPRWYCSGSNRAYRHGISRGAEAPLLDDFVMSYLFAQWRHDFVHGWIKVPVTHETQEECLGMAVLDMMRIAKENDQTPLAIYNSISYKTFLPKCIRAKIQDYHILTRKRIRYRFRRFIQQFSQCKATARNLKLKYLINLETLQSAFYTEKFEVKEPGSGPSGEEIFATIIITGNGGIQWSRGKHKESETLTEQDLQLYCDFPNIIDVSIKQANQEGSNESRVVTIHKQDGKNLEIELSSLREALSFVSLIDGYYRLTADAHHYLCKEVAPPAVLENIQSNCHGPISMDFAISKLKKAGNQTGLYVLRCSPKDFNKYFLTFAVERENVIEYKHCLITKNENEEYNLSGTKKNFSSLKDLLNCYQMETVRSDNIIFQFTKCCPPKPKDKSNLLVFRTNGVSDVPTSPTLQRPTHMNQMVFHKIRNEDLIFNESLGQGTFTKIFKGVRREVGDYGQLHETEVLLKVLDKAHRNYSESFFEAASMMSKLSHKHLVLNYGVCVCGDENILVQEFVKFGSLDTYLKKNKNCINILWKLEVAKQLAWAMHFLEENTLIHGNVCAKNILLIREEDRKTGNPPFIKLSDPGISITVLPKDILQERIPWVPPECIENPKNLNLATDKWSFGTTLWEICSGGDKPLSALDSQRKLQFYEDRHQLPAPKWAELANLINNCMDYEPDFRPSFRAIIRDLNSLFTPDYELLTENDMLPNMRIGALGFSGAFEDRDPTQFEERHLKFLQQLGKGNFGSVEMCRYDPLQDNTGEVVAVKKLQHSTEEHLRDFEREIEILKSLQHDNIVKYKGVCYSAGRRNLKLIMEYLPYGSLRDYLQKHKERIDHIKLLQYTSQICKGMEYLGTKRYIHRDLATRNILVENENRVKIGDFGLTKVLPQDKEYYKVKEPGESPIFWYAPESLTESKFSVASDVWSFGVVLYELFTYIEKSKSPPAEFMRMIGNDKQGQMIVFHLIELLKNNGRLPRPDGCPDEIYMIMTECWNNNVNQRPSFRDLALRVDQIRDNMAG

FGFR1 = FGFR1 (UniProt P11362); experiment: as above
Sequence of FGFR1 (P11362 whole entry, looked up): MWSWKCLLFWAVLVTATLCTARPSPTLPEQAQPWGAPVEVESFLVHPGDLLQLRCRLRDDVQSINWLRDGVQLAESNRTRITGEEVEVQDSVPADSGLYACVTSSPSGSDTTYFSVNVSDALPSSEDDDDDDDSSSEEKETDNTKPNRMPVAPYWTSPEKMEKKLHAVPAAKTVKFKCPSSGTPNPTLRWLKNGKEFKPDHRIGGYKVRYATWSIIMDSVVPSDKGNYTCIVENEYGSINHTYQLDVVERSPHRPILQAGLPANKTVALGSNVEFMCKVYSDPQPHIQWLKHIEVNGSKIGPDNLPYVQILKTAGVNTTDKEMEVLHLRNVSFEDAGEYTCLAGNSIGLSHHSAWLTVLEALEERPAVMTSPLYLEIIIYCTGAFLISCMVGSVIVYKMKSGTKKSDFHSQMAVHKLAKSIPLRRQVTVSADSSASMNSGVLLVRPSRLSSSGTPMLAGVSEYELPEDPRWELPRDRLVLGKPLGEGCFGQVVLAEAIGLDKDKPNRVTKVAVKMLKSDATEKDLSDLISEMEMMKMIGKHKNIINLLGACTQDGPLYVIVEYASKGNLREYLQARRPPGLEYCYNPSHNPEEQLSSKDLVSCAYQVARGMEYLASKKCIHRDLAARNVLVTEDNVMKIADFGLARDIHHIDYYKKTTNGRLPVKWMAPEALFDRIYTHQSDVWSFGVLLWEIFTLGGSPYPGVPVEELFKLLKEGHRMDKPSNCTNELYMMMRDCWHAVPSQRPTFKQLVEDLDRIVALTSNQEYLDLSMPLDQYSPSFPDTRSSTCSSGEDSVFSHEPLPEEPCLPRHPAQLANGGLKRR

Fer (mouse) = experiment: as above
AncSZ = experiment: as above
c-Abl (mouse) = experiment: as above
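Throughout, for SH2 binding enrichment of the phosphorylated peptide, bacterial display: peptide library displayed on the E. coli surface as eCPX fusions, selected cells deep-sequenced, score is each peptide's frequency after selection divided by its frequency in the input.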
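Throughout, for phosphorylation enrichment, bacterial display: 11-residue human phosphosite peptides and single-mutation variants displayed on the E. coli surface, counted by deep sequencing, each peptide's frequency after selection divided by its frequency in the unselected input library; frequency after pTyr selection over input frequency; kinase dosed for 20-30% of maximal phosphorylation in three min.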

Sequence of Grb2 SH2 (P62993 whole entry, looked up): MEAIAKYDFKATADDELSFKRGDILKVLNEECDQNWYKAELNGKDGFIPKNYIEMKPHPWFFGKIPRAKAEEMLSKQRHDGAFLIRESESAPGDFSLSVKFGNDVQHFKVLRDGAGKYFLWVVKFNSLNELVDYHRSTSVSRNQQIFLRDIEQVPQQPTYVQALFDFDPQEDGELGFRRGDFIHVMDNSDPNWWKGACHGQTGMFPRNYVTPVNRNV

| Sequence | SH2 binding enrichment (c-Src SH2) | SH2 binding enrichment (Grb2 SH2) | SH2 binding enrichment (SHP2-C SH2) | phosphorylation enrichment (c-Src) | phosphorylation enrichment (Fes) | phosphorylation enrichment (FGFR3) | phosphorylation enrichment (Fyn) | phosphorylation enrichment (EPHB1) | phosphorylation enrichment (Hck) | phosphorylation enrichment (MERTK) | phosphorylation enrichment (EPHB2) | phosphorylation enrichment (Jak2) | phosphorylation enrichment (FGFR1) | phosphorylation enrichment (Fer (mouse)) | phosphorylation enrichment (AncSZ) | phosphorylation enrichment (c-Abl (mouse)) |
| --- | --- | --- | --- | --- | --- | --- | --- | --- | --- | --- | --- | --- | --- | --- | --- | --- |
| VASSLYDIFAR [GLB1_Y294_L297F] | 0.714 | 1.02 | 0.884 | 6.38 | 0.948 | 0.714 | 6.66 | 1.46 | 8.55 | 11.4 | 1.81 | 0.927 | 0.637 | 3.12 | 1.09 | 1.25 |
| FVPSFYHAFSG [ACTN4_Y265_S262P_YF] | 0.921 | 0.993 | 1.2 | 1.88 | 0.83 | 0.824 | 1.48 | 1.23 | 1.48 | 7.34 | 0.756 | 0.823 | 0.796 | 0.444 | 0.711 | 0.835 |
| RTTKTYFPHFD [HBA1_Y43_P38R] | 1.23 | 1.28 | 1.18 | 1.24 | 0.86 | 1.17 | 0.418 | 1.1 | 0.569 | 0.87 | 0.527 | 2.09 | 0.914 | 0.458 | 0.967 | 0.884 |
| SSPRRYTIAAL [TTR_Y125_G121S] | 0.477 | 0.787 | 0.789 | 0.312 | 0.567 | 0.402 | 0.412 | 0.303 | 0.378 | 0.34 | 0.374 | 0.356 | 0.383 | 0.382 | 0.437 | 0.4 |
| IMAYFYMCDSA [CASD1_Y382_R386S] | 0.677 | 1.08 | 0.702 | 0.69 | 1.5 | 2.25 | 0.523 | 0.845 | 0.51 | 0.505 | 0.643 | 1.93 | 2.24 | 0.597 | 1.38 | 1.07 |
| EGDGVYTLNNE [HP_Y125] | 0.403 | 0.828 | 0.709 | 4.26 | 1.16 | 0.822 | 6.33 | 0.602 | 3.07 | 0.509 | 0.633 | 0.934 | 0.595 | 0.658 | 1.26 | 0.817 |
| SIKDKYLTALF [KCNH2_Y611_V612L_YF] | 0.674 | 1.07 | 0.778 | 0.394 | 0.784 | 0.572 | 0.448 | 0.435 | 0.414 | 0.408 | 0.449 | 0.665 | 0.481 | 0.484 | 0.724 | 0.468 |
| FSPPYYHRNCM [HGD_Y334_R330S] | 0.606 | 0.876 | 0.778 | 0.482 | 0.957 | 0.609 | 0.505 | 0.558 | 0.515 | 0.451 | 0.664 | 0.817 | 0.66 | 0.482 | 0.807 | 0.749 |
| SQQTFYPVSNM [ABCD1_Y181_R182P_YF] | 0.466 | 0.881 | 0.644 | 0.398 | 0.654 | 0.513 | 0.419 | 0.387 | 0.407 | 0.374 | 0.49 | 0.598 | 0.507 | 0.318 | 0.706 | 0.57 |
| KPIETYFSKNY [PLP1_Y50_L46P] | 0.599 | 0.851 | 0.654 | 0.452 | 0.603 | 0.597 | 0.448 | 0.392 | 0.45 | 0.466 | 0.408 | 0.534 | 0.466 | 0.4 | 0.595 | 0.473 |
| LSGVIYVILRK [PMP22_Y153] | 0.841 | 1.89 | 1.4 | 0.484 | 0.823 | 1.11 | 0.279 | 0.46 | 0.513 | 0.364 | 0.23 | 0.633 | 0.443 | 0.504 | 1.01 | 0.923 |
| RAMRRYLEWGE [ERBB3_Y680_R683W] | 0.437 | 0.632 | 0.571 | 0.834 | 0.561 | 0.314 | 0.553 | 0.403 | 0.657 | 0.466 | 0.398 | 0.677 | 0.427 | 0.834 | 0.514 | 0.4 |
| TGNGYYFRVFS [MYBPC3_Y1136_I1131T] | 0.492 | 0.87 | 0.753 | 0.332 | 1.3 | 0.766 | 0.334 | 0.707 | 0.436 | 0.353 | 0.657 | 1.41 | 0.542 | 0.594 | 1.04 | 0.818 |
| TWEKPYECVQC [ZNF24_Y335_G331W] | 4.54 | 1.08 | 0.731 | 0.887 | 0.964 | 0.648 | 0.489 | 0.521 | 0.623 | 0.492 | 0.601 | 0.84 | 0.516 | 4.82 | 0.904 | 0.534 |
| ASNFNYFFHRE [KCNA1_Y413_V408A_YF] | 0.6 | 1.31 | 1.03 | 0.43 | 1.01 | 0.748 | 0.372 | 0.511 | 0.654 | 0.453 | 0.556 | 0.805 | 0.506 | 0.415 | 1.03 | 0.571 |
| DLKFHYDNTAG [KDR_Y1214_P1210L] | 0.552 | 0.867 | 0.598 | 0.426 | 1 | 0.661 | 0.484 | 0.515 | 0.462 | 0.415 | 0.504 | 0.889 | 0.517 | 0.466 | 0.804 | 0.663 |
| LGRKLYSIATP [ABHD12_Y345_A349T] | 0.616 | 1.11 | 0.621 | 0.698 | 1.18 | 0.635 | 0.413 | 0.576 | 0.672 | 1.29 | 0.471 | 1.3 | 0.612 | 0.698 | 0.773 | 1.07 |
| LAVNPYGPPDP | 0.528 | 0.934 | 0.7 | 0.523 | 0.692 | 0.493 | 0.454 | 0.461 | 0.516 | 0.594 | 0.553 | 0.709 | 0.436 | 0.44 | 0.796 | 0.726 |
| RRERLYGGGGG [FUS_Y526_P525L] | 0.402 | 0.657 | 0.404 | 0.878 | 1.14 | 0.545 | 0.535 | 0.677 | 0.365 | 0.561 | 0.398 | 0.528 | 0.546 | 0.499 | 0.701 | 0.39 |
| MLNTNYHLPPS [MT-ATP8_Y33] | 0.515 | 1 | 0.67 | 0.354 | 0.526 | 2.43 | 0.384 | 0.617 | 0.297 | 0.757 | 0.514 | 0.502 | 3.4 | 0.327 | 0.705 | 0.556 |
| GLRYGYGVLGG [KRTAP20-2_Y15] | 0.723 | 0.933 | 0.769 | 0.9 | 0.605 | 0.497 | 0.495 | 0.407 | 0.443 | 0.413 | 0.398 | 0.586 | 0.447 | 0.432 | 0.596 | 0.487 |
| EAMPDYKKQLR [SPATA18_Y229_S227P] | 0.406 | 0.835 | 0.649 | 0.378 | 0.819 | 0.444 | 0.309 | 0.378 | 0.296 | 0.322 | 0.394 | 0.623 | 0.399 | 0.474 | 0.608 | 0.469 |
| IRQDDYESLKE [MTR_Y921_H920D] | 0.514 | 0.907 | 0.707 | 0.533 | 1.15 | 0.608 | 0.455 | 0.633 | 0.571 | 0.474 | 0.553 | 1.13 | 0.5 | 0.463 | 1.32 | 1 |
| SNKELYEKYMI | 0.655 | 0.705 | 0.506 | 0.96 | 0.802 | 0.579 | 0.593 | 0.652 | 0.871 | 0.597 | 0.62 | 0.616 | 0.482 | 7.5 | 0.896 | 0.487 |
| LRYDSYSSYCN [SLC20A2_Y433] | 1.24 | 0.65 | 0.449 | 1.27 | 1.12 | 0.849 | 0.837 | 2.74 | 0.949 | 1.38 | 5.07 | 0.865 | 0.619 | 0.577 | 1.32 | 0.824 |
| SPYMLYQYLKQ [RPAP3_Y567_D564Y] | 1.11 | 1.52 | 3.05 | 5.57 | 1.24 | 4.11 | 4.34 | 14.1 | 7.66 | 9.38 | 11.4 | 2.23 | 5.62 | 10.6 | 1.39 | 3.63 |
| KFDLMYAKLAF [TUBA1A_Y399_R402L] | 1.73 | 1.07 | 7.45 | 3.04 | 1.13 | 0.676 | 1.26 | 0.726 | 4.61 | 3.23 | 0.619 | 0.811 | 0.49 | 0.632 | 0.818 | 0.716 |
| AKIDGYIISYR | 0.685 | 0.961 | 1.03 | 0.568 | 1.39 | 0.684 | 0.37 | 0.678 | 0.604 | 0.46 | 0.657 | 0.966 | 0.607 | 0.566 | 1.15 | 0.755 |
| GKPENYRRLDI [VHL_Y175_V170G] | 0.508 | 0.755 | 0.754 | 0.353 | 0.598 | 0.376 | 0.295 | 0.317 | 0.327 | 0.337 | 0.285 | 0.539 | 0.335 | 0.301 | 0.452 | 0.457 |
